Molecular target: Recombinant angiotensin-converting enzyme-2 (ACE2) (UniProt Q9BYF1)
Assay: LSPR (localized surface plasmon resonance)

Chain of Recombinant angiotensin-converting enzyme-2 (ACE2) (Q9BYF1 18-805): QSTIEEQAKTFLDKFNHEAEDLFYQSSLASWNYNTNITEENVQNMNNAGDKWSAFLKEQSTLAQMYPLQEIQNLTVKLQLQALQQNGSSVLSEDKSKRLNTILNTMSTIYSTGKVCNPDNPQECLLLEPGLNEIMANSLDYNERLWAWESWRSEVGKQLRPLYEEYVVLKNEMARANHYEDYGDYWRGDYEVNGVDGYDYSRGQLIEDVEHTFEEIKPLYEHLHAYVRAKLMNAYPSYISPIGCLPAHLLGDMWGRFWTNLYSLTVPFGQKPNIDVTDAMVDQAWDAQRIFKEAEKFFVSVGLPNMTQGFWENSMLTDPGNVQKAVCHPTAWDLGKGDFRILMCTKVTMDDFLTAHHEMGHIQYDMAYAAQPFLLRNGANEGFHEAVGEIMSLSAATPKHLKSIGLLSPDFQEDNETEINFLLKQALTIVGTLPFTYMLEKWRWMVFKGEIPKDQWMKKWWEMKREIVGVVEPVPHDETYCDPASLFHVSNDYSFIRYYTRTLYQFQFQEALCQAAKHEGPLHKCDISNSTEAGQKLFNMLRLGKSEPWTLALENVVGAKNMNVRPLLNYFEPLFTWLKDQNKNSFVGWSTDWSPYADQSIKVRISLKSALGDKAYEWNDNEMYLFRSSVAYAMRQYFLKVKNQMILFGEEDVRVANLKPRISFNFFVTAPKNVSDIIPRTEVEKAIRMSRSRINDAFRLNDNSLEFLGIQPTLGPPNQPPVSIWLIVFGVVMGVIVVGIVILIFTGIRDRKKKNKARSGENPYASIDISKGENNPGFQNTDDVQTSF

SARS-CoV S1 protein (from UniProt P59594 14-667) (domain or fragment)
LOD: 0.01 ng/mL | fold wavelength shift on Au@R/Li against Au@R, at 100 ng/ml: 1.78 fold | fold wavelength shift on Au@R/Li against Au@R, at 1000 ng/ml: 4.51 fold | fold wavelength shift on Au@R/Li against Au@R, at 10,000 ng/ml: 1.95 fold

Reference: publication PMC10615991
